Experimental data from IntAct's records for PubMed 23663663.

B1: E3 ubiquitin-protein ligase CBL-B (Homo sapiens), Q13191 (parent)
chain: MANSMNGRNPGGRGGNPRKGRILGIIDAIQDAVGPPKQAAADRRTVEKTWKLMDKVVRLCQNPKLQLKNSPPYILDILPDTYQHLRLILSKYDDNQKLAQLSENEYFKIYIDSLMKKSKRAIRLFKEGKERMYEEQSQDRRNLTKLSLIFSHMLAEIKAIFPNGQFQGDNFRITKADAAEFWRKFFGDKTIVPWKVFRQCLHEVHQISSGLEAMALKSTIDLTCNDYISVFEFDIFTRLFQPWGSILRNWNFLAVTHPGYMAFLTYDEVKARLQKYSTKPGSYIFRLSCTRLGQWAIGYVTGDGNILQTIPHNKPLFQALIDGSREGFYLYPDGRSYNPDLTGLCEPTPHDHIKVTQEQYELYCEMGSTFQLCKICAENDKDVKIEPCGHLMCTSCLTAWQESDGQGCPFCRCEIKGTEPIIVDPFDPRDEGSRCCSIIDPFGMPMLDLDDDDDREESLMMNRLANVRKCTDRQNSPVTSPGSSPLAQRRKPQPDPLQIPHLSLPPVPPRLDLIQKGIVRSPCGSPTGSPKSSPCMVRKQDKPLPAPPPPLRDPPPPPPERPPPIPPDNRLSRHIHHVESVPSRDPPMPLEAWCPRDVFGTNQLVGCRLLGEGSPKPGITASSNVNGRHSRVGSDPVLMRKHRRHDLPLEGAKVFSNGHLGSEEYDVPPRLSPPPPVTTLLPSIKCTGPLANSLSEKTRDPVEEDDDEYKIPSSHPVSLNSQPSHCHNVKPPVRSCDNGHCMLNGTHGPSSEKKSNIPDLSIYLKGDVFDSASDPVPLPPARPPTRDNPKHGSSLNRTPSDYDLLIPPLGEDAFDALPPSLPPPPPPARHSLIEHSKPPGSSSRPSSGQDLFLLPSDPFVDLASGQVPLPPARRLPGENVKTNRTSQDYDQLPSCSDGSQAPARPPKPRPRRTAPEIHHRKPHGPEAALENVDAKIAKLMGEGYAFEEVKRALEIAQNNVEVARSILREFAFPPPVSPRLNL

Variants of: B1
Settings: with cd2ap_human CD2AP

Row | Variant | effect of a mutation on the interaction
1 | K907L | decreasing interaction

Variants of: B1
Settings: with sh3k1_human SH3KBP1, Q96B97
sh3k1_human SH3KBP1, Q96B97, sequence (Q96B97 whole entry): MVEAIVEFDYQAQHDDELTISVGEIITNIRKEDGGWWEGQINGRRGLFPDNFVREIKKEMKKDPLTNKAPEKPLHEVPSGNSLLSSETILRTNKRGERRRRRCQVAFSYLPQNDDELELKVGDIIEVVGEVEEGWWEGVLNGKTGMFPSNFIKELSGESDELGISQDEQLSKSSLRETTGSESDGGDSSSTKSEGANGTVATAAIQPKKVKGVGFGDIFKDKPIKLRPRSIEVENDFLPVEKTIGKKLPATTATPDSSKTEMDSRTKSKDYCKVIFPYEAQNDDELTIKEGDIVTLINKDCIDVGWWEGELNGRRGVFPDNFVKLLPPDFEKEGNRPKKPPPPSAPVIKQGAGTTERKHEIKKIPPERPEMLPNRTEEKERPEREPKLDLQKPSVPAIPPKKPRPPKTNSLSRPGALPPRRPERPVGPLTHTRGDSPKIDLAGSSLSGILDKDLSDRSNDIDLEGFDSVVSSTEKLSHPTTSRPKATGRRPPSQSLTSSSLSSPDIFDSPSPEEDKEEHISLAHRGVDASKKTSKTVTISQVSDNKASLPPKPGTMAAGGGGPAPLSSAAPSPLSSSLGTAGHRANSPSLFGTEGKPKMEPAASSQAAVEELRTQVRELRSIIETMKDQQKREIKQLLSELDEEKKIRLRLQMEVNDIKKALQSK

Row | Variant | effect of a mutation on the interaction
2 | K907L | decreasing interaction

Variants of: B1
Settings: with sh3k1_human SH3KBP1, Q96B97
Remark: another data set of the same source

Row | Variant | effect of a mutation on the interaction
3 | R911A | decreasing interaction

Variants of: B1
Settings: with cd2ap_human CD2AP
Remark: another data set of the same source

Row | Variant | effect of a mutation on the interaction
4 | R911A | decreasing interaction

Variants of: B1
Settings: with cd2ap_human CD2AP
Remark: another data set of the same source

Row | Variant | effect of a mutation on the interaction
5 | R904G | decreasing interaction

Variants of: B1
Settings: with sh3k1_human SH3KBP1, Q96B97
Remark: another data set of the same source

Row | Variant | effect of a mutation on the interaction
6 | R904G | decreasing interaction
